# Laboratory results from patent US20230160890A1, “COMPOSITIONS AND METHODS FOR DIAGNOSING NARCOLEPSY” (The Board of Trustees of the Leland Stanford Junior …, priority 2018, published 2023).
# “Also recorded” adds a separate entry of the source. Ends that are not written are not given here. * marks the point of attachment. Biotin = O=C1N[C@H]2[C@H](CS[C@H]2CCCCC(=O)*)N1
# What was measured:
# [1] = target: T1, soluble DQ6 (DQA1*01:02/DQB1*06:02) (Homo sapiens, UniProt P01909+P01920, A157G/A45G/C70R/E118A/E183D/E77G/F83G/G63E/H151Q/H199R/H252R/H253Q/I129T/I235V/I88M/INS77G/K197Q/L117V/L119F/L178F/L71W/L74F/L85Q/L91A/L98M/N214S/P87R/Q116E/Q76K/R102G/R240Q/R75S/R78G/S102Y/S185I/S41F/S97I/T121G/T122I/T172A/T86R/V229M/V68A/V73E/Y34C/Y41F/Y58L); assay: Peptide competition assay (inhibition of DQ6 binding of biotinylated EBV486-500)
# T1 construct: 3C protease cleavage site (C); leucine zipper-Fos (C); cut by thrombin before the assay (N, cleaved yes); leucine zipper-Jun (C); made in house; host or cells: Drosophila Schneider 2 (S2) insect cells
# Source text: The ability of a peptide to inhibit the interaction of DQ6 and a reference binding peptide at steady state was used to estimate the relative DQ6 binding capacity of test peptides. We used biotinylated EBV486-500 (aa: biotin-[…] (SEQ ID NO:45), synthesized by Genscript), a DQ6-binding peptide (epitope underlined) derived from Epstein-Barr virus nuclear antigen^25, as our reference peptide. Non-biotinylated test peptides included thirty 15-mer overlapping peptides derived from prepo-HCRT (Table 1, by Genscript) and the positive control peptide EBV486-500. The DQ6-CLIP87-101 construct contains a thrombin cleavage site in between CLIP87-101 and […]. To cleave the covalent linker and enable replacement of CLIP87-101 by high affinity DQ6 binders, soluble DQ6-CLIP87-101 at a concentration of 3 μM was incubated with 0.002 U/μl thrombin enzyme (Novagen, EMD Millipore) for 2 h at room temperature (RT) prior to peptide loading experiments. To test DQ6 binding capacity, a non-biotinylated peptide at 40 μM was mixed with 1 μM biotinylated EBV486-500 and incubated with 25 nM thrombin-cleaved DQ6-CLIP87-101. 100 nM soluble DM was added as a catalyst to increase the peptide exchange efficiency^44. […] Time resolved fluorescence representing DQ6-associated biotinylated EBV486-500 captured by SPV-L3 in each well was then quantified using the DELFIA Eu-N1 Streptavidin System (PerkinElmer).
# [2] = tested on: TCR27 transfectants of J76-NFATRE-luc cells; assay: T cell activation assay using a luciferase reporter, TCR27 transfectants with K562-DQ6 APCs; type: cell-based, human; parameters: dose or concentration left out as unconfirmed; conditions: DQ6-restricted presentation by K562-DQ6, 1 day
# Source text: To encode the entire α/β chains of a candidate TCR, the nucleotide sequences for CDR3a and CDR3P were incorporated in frame with the corresponding V(D)J genes (IMGT/V-QUEST^37). TCRα/β genes were then synthesized and cloned into a plasmid pEF1α-TCRA_2A_TCRB_IRES-AcGFP1 (by GenScript). Each reconstructed plasmid uses a mammalian promoter, EF1a to direct co-expression of α and β chains of one candidate TCR. TCRA and TCRB are separated by the 2A self-cleaving peptide sequence. For selection purposes, the plasmid also encodes the green fluorescence protein (GFP) and neomycin resistance gene, with expression driven by separate promoters. TCR-encoding plasmids were then transfected into the TCRα/β deficient Jurkat cell line (J76-NFATRE-luc)^20 by nucleofection following the Amaxa Optimized protocol (Lonza). Transfectants were selected by G418 at a concentration of 1 mg/ml and recovered after 3-4 weeks of culturing in the RPMI medium supplemented with 10% HI FBS, 2 mM glutamine, and 1% PS. To avoid the heterogeneity in TCR expression observed in a polyclonal cell line, TCRαβ^+/GFP^+/CD3^+ cell transfectants were individually sorted by single cell FACS, to expand clonal cell lines originating from single cell transfectants. These clonal lines were then co-stained with PE anti-TCRα/β Abs (BD Biosciences) and APC DQ6-HCRT tetramers to confirm the expression of TCRs and validate their binding to tetramers using flow cytometric analysis.
# The TCR transfectants of J76-NFATRE-luc cells expresses the NFAT-RE (response element)-luciferase reporter gene allowing the conversion of T cell activation signaling to luciferase activity^20. […] The co-culture was incubated with various stimuli at 37° C. for 1 day before quantification of the luciferase activity. […] The mixture was then transferred to a flat-bottom white 96-well plate (Costar) for a measurement of chemiluminescence using a plate reader.
# [3] = tested on: CD4+ T cells from T1N donors; assay: In vitro culturing of CD4+ T cells with peptide-loaded T2DQ6 APCs, then tetramer staining; type: cell-based, human; conditions: for Frequencies of tetramer+ cells after in vitro stimulation with the corresponding peptide: stained with the tetramer of the corresponding peptide
# Source text: To test for the presence of DQ6-HCRTpeptide tetramer^+/CD4^+ T cells, a peptide-loaded antigen presenting cell (APC) line T2DQ6 (fixed to limit APC proliferation) was co-cultured with T cells for DQ6-restricted antigen stimulation. T2DQ6 was constructed by stable transfection of DQ6 (DQA1*01:02/DQB1*06:02) into T2, a class II deficient TxB hybrid cell^44. T2DQ6 cells were maintained in IMDM, GlutaMAX supplemented media (Thermo Fisher Scientific) with 10% HI FBS, 1% penicillin/streptomycin (P/S) and 1 mg/ml G418 (to maintain selective pressure on DQ6 transfectants). To load antigen, T2DQ6 cells were pulsed with peptides (i.e., EBV486-500, HCRT56-69, HCRT87-100, synthesized by Genscript) at 1 μM final concentration and incubated for 6 hours at 37° C. After peptide loading, 10 million T2DQ6 cells were washed with phosphate buffered saline (PBS) and then fixed by incubating with 0.025% glutaraldehyde in 2 ml PBS at RT for 30 seconds. After the addition of another 2 ml PBS, the cells were incubated for another 10 minutes at RT. Fixed T2DQ6 was washed twice with PBS and once with complete RPMI (RPMI 1640 medium supplemented with 10% HI human AB serum, 2 mM glutamine and 1% PS) before mixing with CD4^+ T cells. Human PBMCs frozen in NUNC tubes were thawed quickly at 37° C. and added slowly to 10 ml warm complete RPMI. PBMCs were pelleted and resuspended in cold buffer for CD4^+ T cell isolation. Cells were isolated from the PBMCs by negative selection, using the CD4^+ cell isolation kit, according to the manufacturer's instructions (Miltenyi Biotec). Isolated CD4^+ T cells were resuspended at 1×10^6 cells/ml in warm complete RPMI and rested for at least 1 hour before mixing with fixed T2DQ6 cells that were also resuspended at 1×10^6 cells/ml in warm complete RPMI. A mixture of 1:1 volume ratio of CD4^+ T cells and T2DQ6 cells in the presence of recombinant human IL-7 at final concentration of 2.5 ng/ml was aliquoted onto a 96-well plate and incubated at 37° C. for 6 days. On day 6 and day 9, 100 μl of the spent medium was removed from each well and replaced with fresh complete RPMI containing recombinant IL-7 at 2.5 ng/ml and IL-2 at 40 U/ml final concentrations. On day 12, a second round of antigen stimulation was performed similarly, using fixed T2DQ6 cells loaded with the corresponding peptides.
# Sufficient cells from the co-culture were collected, washed with complete RPMI, and resuspended in 5 ml complete RPMI at RT prior to Ficoll gradient separation. Cells above the Ficoll media were washed and resuspended at 10×10^6 cells/ml in complete RPMI for blocking. […]
# [4] = target: T2, prepro-HCRT (hypocretin precursor) peptide on HLA-DQA1*01:02 / HLA-DQB1*06:02 (human); assay: activation reporter or marker
# T2 peptide: ALLSSGAAAQPLP
# [5] = target: soluble HLA-DQ6 (DQA1*01:02/DQB1*06:02), thrombin-cleaved DQ6-CLIP87-101 (human); assay: competition: 40 µM test peptide against 1 µM biotinylated EBV486-500 on 25 nM soluble DQ6 with 100 nM HLA-DM, SPV-L3 capture, DELFIA
# [6] = target: T3, prepro-HCRT (hypocretin precursor; C-terminus of HCRT2) peptide on HLA-DQA1*01:02 / HLA-DQB1*06:02 (human); assay: multimer staining
# T3 peptide: SGNHAAGILTMGRR
# [7] = target: T4, prepro-HCRT (hypocretin precursor) peptide on HLA-DQA1*01:02 / HLA-DQB1*06:02 (human); assay: multimer staining
# T4 peptide: MNLPSTKVSWAAV
molecule,measurement,setting,value
MNLPSTKVSWAAVTL [HCRT1-15],% Competition (inhibition of the indicator EBV peptide binding to DQ6),"[1]; test peptide 40 μM, 1 μM biotinylated EBV486-500, 25 nM DQ6, 100 nM DM, pH 4.6, 37° C., 20 hours",> 75%
SGNHAAGILTM-NH2 [HCRT87-97-NH2],TCR-mediated signaling (luciferase activity),[2],significant signaling response; also recorded: triggered stronger signaling
"EBV486-500: a DQ6-binding peptide derived from Epstein-Barr virus nuclear antigen, reference and positive control peptide (Biotin-GGGRALLARSHVERTTDE) [reference compound]",Frequencies of tetramer+ cells after in vitro stimulation with the corresponding peptide,[3],time dependent enrichment
MNLPSTKVSWAAV [HCRT1-13],TCR-mediated signaling (luciferase activity),[2],failure of TCR27-mediated signaling
SGNHAAGILTMGRR [HCRT87-100],TCR-mediated signaling (luciferase activity),[2],able to trigger TCR-mediated activation signaling
same,Enrichment of DQ6-HCRT56-69 tetramer+ cells in peptide-stimulated culture,"[3]; stained with the DQ6-HCRT56-69 tetramer, some T1N donors",enrichment
same,Frequencies of tetramer+ cells after in vitro stimulation with the corresponding peptide,[3],significantly increased
ALLSSGAAAQPLPDC [HCRT25-39],DQ6 binder class,"[1]; competition assay, FIG. 2A",strong binder
AGNHAAGILTLGKR [HCRT56-69],Frequencies of tetramer+ cells after in vitro stimulation with the corresponding peptide,[3],significantly increased
TCR26 (TCR) alpha TRAV9-2 TRAJ5 CDR3: CALSGKDTGRRALTF beta TRBV25-1 TRBJ2-1 CDR3: CASSASPNEQFF,binding result,[4],no recognition
MNLPSTKVSWAAVTL [Hcrt1-15 peptide (…)],% competition,[5],> 75%
T1N-irrelevant TCR isolated from a CD8+ T cell (TCR) alpha TRAV25 TRAJ42 CDR3: CAGTYGGSQGNLIF beta TRBV19 TRBJ2-2 CDR3: CASSLRSTGELFF,binding result,[6],no recognition
same,binding result,[7],no recognition
same,binding result,[4],no recognition
